± gives the standard error. Variants at the floor of the assay were thinned out.
B1: glmS ribozyme (parent)
chain: AUAAAAGCGCCAGAACUACAGAAAUGUAGUUGACGAGGAGGAGGUUUAUCGAAUUUUCGGCGGAUGCCUCCAAA

How the values were obtained:
Conditions in all cases: with glucosamine-6-phosphate
glucosamine-6-phosphate [1] = variants of: B1; test: self-cleavage kobs at 40 uM GlcN6P; higher = faster cleavage; RNA array
Procedure, shortened: (§1)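 A hybridised Cy3 probe tracked barcoded ribozyme variants, transcribed in situ by E. coli RNA polymerase on sequenced MiSeq chips, at 37 °C. The variants received 40 μM to 10 mM glucosamine-6-phosphate in HEPES/KCl/Mg(OAc)2 buffer. kobs came from decay fits and kcat and KM from weighted Michaelis–Menten fits.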

glucosamine-6-phosphate [2] = variants of: B1; test: self-cleavage kobs at 10000 uM GlcN6P; higher = faster cleavage; RNA array
Procedure, shortened: as §1

glucosamine-6-phosphate [3] = variants of: B1; test: self-cleavage kobs at 640 uM GlcN6P; higher = faster cleavage; RNA array
Procedure, shortened: as §1

glucosamine-6-phosphate [4] = variants of: B1; test: self-cleavage kobs at 2500 uM GlcN6P; higher = faster cleavage; RNA array
Procedure, shortened: as §1

glucosamine-6-phosphate [5] = variants of: B1; test: self-cleavage kobs at 160 uM GlcN6P; higher = faster cleavage; RNA array
Procedure, shortened: as §1

Variant | self-cleavage kobs at 40 uM GlcN6P (glucosamine-6-phosphate [1]) | self-cleavage kobs at 10000 uM GlcN6P (glucosamine-6-phosphate [2]) | self-cleavage kobs at 640 uM GlcN6P (glucosamine-6-phosphate [3]) | self-cleavage kobs at 2500 uM GlcN6P (glucosamine-6-phosphate [4]) | self-cleavage kobs at 160 uM GlcN6P (glucosamine-6-phosphate [5])
A6U C10A G38U | < 1e-05 s⁻¹ | < 1e-05 s⁻¹ |  |  | 
G43U C61G | < 1e-05 s⁻¹ | < 1e-05 s⁻¹ | < 1e-05 s⁻¹ | < 1e-05 s⁻¹ | 
C11G A39G U46G C61U U65C C68A | < 1e-05 s⁻¹ | < 1e-05 s⁻¹ |  |  | 
C11A G43U | < 1e-05 s⁻¹ | < 1e-05 s⁻¹ | < 1e-05 s⁻¹ |  | < 1e-05 s⁻¹
G9U A33U A53U C61G | < 1e-05 s⁻¹ |  |  |  | 
G32U A36G U45C C68G | < 1e-05 s⁻¹ |  |  |  | 
A15C U56G | 6.11e-05 ± 1.3e-05 s⁻¹ | 0.00228 ± 0.00048 s⁻¹ | 0.000276 ± 8.7e-05 s⁻¹ | 0.0011 ± 0.00025 s⁻¹ | 7.19e-05 ± 1.9e-05 s⁻¹
C8G U45G U47G C58U G66U C71U | < 1e-05 s⁻¹ |  |  |  | 
C16G U31C U45C | < 1e-05 s⁻¹ |  |  |  | 
G9U U31G G32C G62A | < 1e-05 s⁻¹ |  |  |  | 
G29C C58G | < 1e-05 s⁻¹ | 4.93e-05 ± 1.5e-05 s⁻¹ |  | 6.23e-05 ± 2.1e-05 s⁻¹ | 
C16U G41A G59U | < 1e-05 s⁻¹ | < 1e-05 s⁻¹ | < 1e-05 s⁻¹ | < 1e-05 s⁻¹ | 
G9A A14C G44U U47C | < 1e-05 s⁻¹ |  |  |  | 
C8G C10U | < 1e-05 s⁻¹ | < 1e-05 s⁻¹ |  |  | 
C11A A12C G44C U49A | < 1e-05 s⁻¹ | < 1e-05 s⁻¹ | < 1e-05 s⁻¹ | < 1e-05 s⁻¹ | < 1e-05 s⁻¹
U55A C70U | 0.00118 ± 0.00012 s⁻¹ |  | 0.00644 ± 0.0011 s⁻¹ |  | 0.00271 ± 0.00065 s⁻¹
G7U C10A A12U A36G C50G | 0.000144 ± 2.8e-05 s⁻¹ | 0.000157 ± 3.1e-05 s⁻¹ | 0.0003 ± 0.0001 s⁻¹ |  | 
A6U C11U G13A | < 1e-05 s⁻¹ | < 1e-05 s⁻¹ |  |  | 
A14C U31A U54A | 0.000186 ± 4.9e-05 s⁻¹ | 0.0192 ± 0.0058 s⁻¹ |  |  | 
A42G U47A | 0.000848 ± 0.00018 s⁻¹ | 0.00752 ± 0.0028 s⁻¹ | 0.00967 ± 0.0013 s⁻¹ | 0.0269 ± 0.0085 s⁻¹ | 0.00279 ± 0.0011 s⁻¹
G66A C71A | 0.000146 ± 2.1e-05 s⁻¹ | 0.00424 ± 0.00059 s⁻¹ | 0.0014 ± 0.00036 s⁻¹ |  | 0.00048 ± 9.5e-05 s⁻¹
C34A G44U G51C | < 1e-05 s⁻¹ | < 1e-05 s⁻¹ | < 1e-05 s⁻¹ | < 1e-05 s⁻¹ | 
C50G U57A G63U A64U | 7.9e-05 ± 2.7e-05 s⁻¹ |  |  |  | 

Variant | self-cleavage kobs at 40 uM GlcN6P (glucosamine-6-phosphate [1]) | self-cleavage kobs at 10000 uM GlcN6P (glucosamine-6-phosphate [2]) | self-cleavage kobs at 640 uM GlcN6P (glucosamine-6-phosphate [3]) | self-cleavage kobs at 2500 uM GlcN6P (glucosamine-6-phosphate [4]) | self-cleavage kobs at 160 uM GlcN6P (glucosamine-6-phosphate [5])
A42U U46C | < 1e-05 s⁻¹ |  | < 1e-05 s⁻¹ |  | < 1e-05 s⁻¹
G35C G38C C58A | < 1e-05 s⁻¹ |  |  | < 1e-05 s⁻¹ | < 1e-05 s⁻¹
U47A G51C | < 1e-05 s⁻¹ | < 1e-05 s⁻¹ |  | < 1e-05 s⁻¹ | < 1e-05 s⁻¹
A15U U56A | 0.000156 ± 3.4e-05 s⁻¹ | 0.00509 ± 0.00093 s⁻¹ | 0.00152 ± 0.00021 s⁻¹ | 0.00224 ± 0.00059 s⁻¹ | 0.000209 ± 4.3e-05 s⁻¹
G32C A36C G37C | < 1e-05 s⁻¹ |  |  |  | 
A33C C68A | < 1e-05 s⁻¹ | < 1e-05 s⁻¹ | < 1e-05 s⁻¹ | < 1e-05 s⁻¹ | 
A12U A14G G29A | 0.00101 ± 0.00019 s⁻¹ | 0.00831 ± 0.0018 s⁻¹ |  |  | 
G32U G38C U55A | < 1e-05 s⁻¹ | < 1e-05 s⁻¹ | < 1e-05 s⁻¹ |  | 
A12C A36G A64C | < 1e-05 s⁻¹ | < 1e-05 s⁻¹ | < 1e-05 s⁻¹ |  | 
C8U C10U C50A C67G | 6.47e-05 ± 2.3e-05 s⁻¹ | 0.000228 ± 4.1e-05 s⁻¹ |  |  | 
C10G G40C C70G | < 1e-05 s⁻¹ | < 1e-05 s⁻¹ | < 1e-05 s⁻¹ | < 1e-05 s⁻¹ | < 1e-05 s⁻¹
A12G A15U U49A U54G | < 1e-05 s⁻¹ |  |  |  | 
G37A C50G C70G | 4.31e-05 ± 2.1e-05 s⁻¹ |  |  |  | 
A15G G59C | < 1e-05 s⁻¹ |  | < 1e-05 s⁻¹ |  | < 1e-05 s⁻¹
C16G G35A | < 1e-05 s⁻¹ | < 1e-05 s⁻¹ | < 1e-05 s⁻¹ |  | < 1e-05 s⁻¹
A42G U55G G59C | < 1e-05 s⁻¹ |  |  | < 1e-05 s⁻¹ | 
U54C U65A | 6.51e-05 ± 8.4e-06 s⁻¹ | 0.00332 ± 0.00031 s⁻¹ | 0.00147 ± 0.00042 s⁻¹ |  | 
A36C A64C | < 1e-05 s⁻¹ | < 1e-05 s⁻¹ | < 1e-05 s⁻¹ | < 1e-05 s⁻¹ | 
A39G U47G | 0.000644 ± 0.0001 s⁻¹ | 0.0237 ± 0.0069 s⁻¹ | 0.00207 ± 0.00049 s⁻¹ | 0.0155 ± 0.0035 s⁻¹ | 
U46G U65A C70U | 8.31e-05 ± 1.9e-05 s⁻¹ | 0.00117 ± 0.00024 s⁻¹ |  |  | 
A6C G66C C68G | < 1e-05 s⁻¹ |  |  |  | 
A6C G63C | < 1e-05 s⁻¹ | < 1e-05 s⁻¹ | < 1e-05 s⁻¹ |  | 
A6U A33U | < 1e-05 s⁻¹ | < 1e-05 s⁻¹ | < 1e-05 s⁻¹ | < 1e-05 s⁻¹ | 
